In patent US6713276B2, “Modulation of Aβ levels by β-secretase BACE2” (Scios, Inc., priority 2000, dated 2004):

System: APP751sw
Experiment: cell-free β-secretase assay, β-NTF ELISA, APP751sw substrate
Format: biochemical, human
Details: membrane extracts of transfected HEK293 cells, pH 4.5, 37° C.
Experimental: The β-secretase assay consists of two different parts, an incubation or reaction phase to generate β-NTF and an ELISA part to capture and measure the β-NTF generated by β-secretase. The β-secretase ELISA was performed as follows. Each well of a 96 well plate containing a flat bottom (high protein binding, Corning, N.Y.) was coated with 100 μl of the monoclonal capture antibody 8E5 (at ˜8-10 μg/ml) (Johnson-Wood et al. Proc. Natl. Acad. Sci. USA 94: 1550-1555 [1997]). The plate was then covered with parafilm and incubated overnight at 4° C. or alternatively for 2 hours at 37° C. […]
One hundred μl of a 1:5000 dilution of a goat anti rabbit IgG-HRP in Antibody-Conjugate Buffer was then added to each well, and the plate incubated at room temperature for one hour. […] After sufficient blue color had developed, the reactions were stopped by adding 100 μl of 5N H2SO4 to each well, and the amount of βNTF was determined by reading the plate at 450 nm in a Softmax spectrophotometer.
Equal amounts of membrane extracts from either mock, BACE or BACE2 transfected HEK293 cells were incubated with partially purified full length APP751 sw or APP751wt for the indicated times. The formation of β-NTF was then determined using the respective β-NTF specific ELISA as described in General Methodology.

B1: BACE2: human aspartyl protease, close homolog of BACE (SEQ ID NO: 2), expressed from pcDNA3.1(−)/BACE2 in transfected cells (protein)
chain: MGALARALLLPLLAQWLLRAAPELAPAPFTLPLRVAAATNRVVAPTPGPGTPAERHADGLALALEPALASPAGAANFLAMVDNLQGDSGRGYYLEMLIGTPPQKLQILVDTGSSNFAVAGTPHSYIDTYFDTERSSTYRSKGFDVTVKYTQGSWTGFVGEDLVTIPKGFNTSFLVNIATIFESENFFLPGIKWNGILGLAYATLAKPSSSLETFFDSLVTQANIPNVFSMQMCGAGLPVAGSGTNGGSLVLGGIEPSLYKGDIWYTPIKEEWYYQIEILKLEIGGQSLNLDCREYNADKAIVDSGTTLLRLPQKVFDAVVEAVARASLIPEFSDGFWTGSQLACWTNSETPWSYFPKISIYLRDENSSRSFRITILPQLYIQPMMGAGLNYECYRFGISPSTNALVIGATVMEGFYVIFDRAQKRVGFAASPCAEIAGAAVSEISGPFSTEDVASNCVPAQSLSEPILWIVSYALMSVCGAILLVLIVLLLLPFRCQRRPRDPEVVNDESSLVRHRWK
  β-NTF formation (β-secretase cleavage in vitro): time-dependent increase in β-NTF formation

B2: BACE2 D110A: single D110A BACE2 mutant of a critical aspartate residue, made by site-directed mutagenesis (protein)
chain: ALEPALASPAGAANFLAMVDNLQGDSGRGYYLEMLIGTPPQKLQILVATGSSNFAVAGTPHSYIDTYFDTERSSTYRSKGFDVTVKYTQGSWTGFVGEDLVTIPKGFNTSFLVNIATIFESENFFLPGIKWNGILGLAYATLAKPSSSLETFFDSLVTQANIPNVFSMQMCGAGLPVAGSGTNGGSLVLGGIEPSLYKGDIWYTPIKEEWYYQIEILKLEIGGQSLNLDCREYNADKAIVDSGTTLLRLPQKVFDAVVEAVARASLIPEFSDGFWTGSQLACWTNSETPWSYFPKISIYLRDENSSRSFRITILPQLYIQPMMGAGLNYECYRFGISPSTNALVIGATVMEGFYVIFDRAQKRVGFAASPCAEIAGAAVSEISGPFSTEDVASNCVPAQSLSEPILWIVSYALMSVCGAILLVLIVLLLLPFRCQRRPRDPEVVNDESSLVRHRWK
  β-NTF formation (β-secretase cleavage in vitro): lost their ability to cleave at the β-secretase site in vitro
